In US20030143191A1 (published 2003):

Molecular target: T1, CCR5 (G-protein coupled chemokine receptor) on human PBMC (human, UniProt P51681 1-352)
T1 construct: whole, on cells; The cells were primary PBMC, not transfectants, so the receptor is assigned through the CCR5 agonist MIP-1β; also called G-protein Chemokine Receptor CCR5
Test: 125I-MIP-1β competition binding on human PBMC cultured 2 days; labelled competitor 0.17 nM 125I-MIP-1β; cells preincubated with supernatant 45 min at 37 °C, then hot ligand 60 min at RT; cell pellet collected by density centrifugation through oil; readout cpm
Method: Human PBMC were purified from whole blood and cultured for 2 days. […] After 60 minutes, cell bound ¹²⁵I-MIP-1 was separated from unbound ¹²⁵I-MIP-1, and the radioactivity determined.
PBMCs were grown, purified, and suspended in calcium buffer as described above in Example 49.

T1 sequence (P51681 whole entry): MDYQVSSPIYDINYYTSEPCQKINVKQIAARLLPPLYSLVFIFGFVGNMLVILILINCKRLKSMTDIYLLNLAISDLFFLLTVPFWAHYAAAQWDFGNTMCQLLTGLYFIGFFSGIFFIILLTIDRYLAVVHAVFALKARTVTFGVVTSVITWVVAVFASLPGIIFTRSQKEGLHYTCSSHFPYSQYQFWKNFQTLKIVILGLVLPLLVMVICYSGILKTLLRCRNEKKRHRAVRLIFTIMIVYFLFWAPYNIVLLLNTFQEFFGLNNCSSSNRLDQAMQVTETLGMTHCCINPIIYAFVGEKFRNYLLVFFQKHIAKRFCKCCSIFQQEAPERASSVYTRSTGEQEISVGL

- binding result: binds
B1: Ckb1 construct 1832 (pC4:MPIFsp.CKB1(G28-N93)), secreted product ck-beta-1 G28-N93 (ligand)
chain: GPYHPSECCFTYTTYKIPRQRIMDYYETNSQCSKPGIVFITKRGHSVCTNPSDKWVQDYIKDMKEN
notes: Non-fusion Ckb1, expressed in mammalian cells from pC4
